Data as given in patent publication US20190194276A1 (MAYO FOUNDATION FOR MEDICAL EDUCATION AND RESEARCH, published 2019).
Positions count from the first letter of the chain named. Names may count otherwise. One block for each binder: values may come before it. Ends that are not written are not given here.

What was measured:
[1] = biological target: T1, endogenous IQGAP1 (human, UniProt P46940 2-1657); assay: co-IP with anti-IQGAP1 from LNCaP cells transfected with HA-FOXO3, Western blot
T1 construct: also called cellular IQGAP1
T1 sequence (P46940 2-1657 limits assumed): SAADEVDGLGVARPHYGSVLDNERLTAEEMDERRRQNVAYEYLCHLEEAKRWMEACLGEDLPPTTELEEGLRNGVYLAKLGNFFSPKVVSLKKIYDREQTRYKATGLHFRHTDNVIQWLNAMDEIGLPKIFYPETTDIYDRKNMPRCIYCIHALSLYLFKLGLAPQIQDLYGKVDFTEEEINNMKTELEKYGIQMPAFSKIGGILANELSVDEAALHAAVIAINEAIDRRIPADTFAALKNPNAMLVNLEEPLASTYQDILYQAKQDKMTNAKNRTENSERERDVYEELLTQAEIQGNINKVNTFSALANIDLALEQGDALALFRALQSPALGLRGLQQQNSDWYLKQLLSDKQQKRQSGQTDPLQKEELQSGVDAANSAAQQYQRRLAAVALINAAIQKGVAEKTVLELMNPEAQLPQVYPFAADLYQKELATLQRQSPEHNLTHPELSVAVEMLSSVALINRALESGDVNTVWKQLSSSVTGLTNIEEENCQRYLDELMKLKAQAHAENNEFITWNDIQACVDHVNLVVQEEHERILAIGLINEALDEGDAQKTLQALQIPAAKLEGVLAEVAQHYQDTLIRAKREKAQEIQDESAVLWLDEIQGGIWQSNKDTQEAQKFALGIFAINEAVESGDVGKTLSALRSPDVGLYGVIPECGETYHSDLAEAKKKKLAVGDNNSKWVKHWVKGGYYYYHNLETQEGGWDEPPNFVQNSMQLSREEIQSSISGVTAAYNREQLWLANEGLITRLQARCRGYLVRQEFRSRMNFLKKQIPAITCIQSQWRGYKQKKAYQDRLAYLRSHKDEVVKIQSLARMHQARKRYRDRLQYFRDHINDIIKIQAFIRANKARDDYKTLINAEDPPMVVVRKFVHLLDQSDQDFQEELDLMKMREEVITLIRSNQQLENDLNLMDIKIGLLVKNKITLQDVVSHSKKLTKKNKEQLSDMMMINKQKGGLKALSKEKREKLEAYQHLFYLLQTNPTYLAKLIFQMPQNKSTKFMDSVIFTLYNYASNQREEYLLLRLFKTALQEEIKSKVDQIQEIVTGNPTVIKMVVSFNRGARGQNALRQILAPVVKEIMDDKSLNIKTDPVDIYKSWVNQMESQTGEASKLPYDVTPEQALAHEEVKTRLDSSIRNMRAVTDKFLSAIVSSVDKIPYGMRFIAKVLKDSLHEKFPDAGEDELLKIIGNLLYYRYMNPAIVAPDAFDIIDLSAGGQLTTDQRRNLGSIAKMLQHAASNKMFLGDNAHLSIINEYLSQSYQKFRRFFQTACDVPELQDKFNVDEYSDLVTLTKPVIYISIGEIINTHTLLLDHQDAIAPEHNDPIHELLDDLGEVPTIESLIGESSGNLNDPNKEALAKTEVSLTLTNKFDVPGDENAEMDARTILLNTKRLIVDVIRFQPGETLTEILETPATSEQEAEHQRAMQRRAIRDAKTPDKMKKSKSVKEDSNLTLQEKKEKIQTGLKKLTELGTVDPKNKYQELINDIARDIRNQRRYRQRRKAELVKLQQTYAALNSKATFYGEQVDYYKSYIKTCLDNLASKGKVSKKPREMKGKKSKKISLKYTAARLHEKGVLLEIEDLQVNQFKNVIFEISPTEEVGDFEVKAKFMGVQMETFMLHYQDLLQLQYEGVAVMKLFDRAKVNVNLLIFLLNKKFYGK

[2] = biological target: T1, endogenous IQGAP1; assay: co-IP with anti-Flag from transfected LNCaP cells, Western blot
[3] = biological target: T1, endogenous IQGAP1; assay: TAP of SFB-FOXO1 from 293T cells, LC-MS/MS
[4] = biological target: T1, endogenous IQGAP1; assay: GST pull-down from DU145 whole cell lysate, Western blot
[5] = biological target: T1, endogenous IQGAP1; assay: co-IP with anti-Flag from LNCaP cells expressing SFB-tagged peptides, Western blot
[6] = biological target: T1, endogenous IQGAP1; assay: co-IP with anti-IQGAP1 from LNCaP cells transfected with HA-FOXO4, Western blot

B1: HA-FOXO3 (other, UniProt O43524 1-673, looked up)
chain: MAEAPASPAPLSPLEVELDPEFEPQSRPRSCTWPLQRPELQASPAKPSGETAADSMIPEEEDDEDDEDGGGRAGSAMAIGGGGGSGTLGSGLLLEDSARVLAPGGQDPGSGPATAAGGLSGGTQALLQPQQPLPPPQPGAAGGSGQPRKCSSRRNAWGNLSYADLITRAIESSPDKRLTLSQIYEWMVRCVPYFKDKGDSNSSAGWKNSIRHNLSLHSRFMRVQNEGTGKSSWWIINPDGGKSGKAPRRRAVSMDNSNKYTKSRGRAAKKKAALQTAPESADDSPSQLSKWPGSPTSRSSDELDAWTDFRSRTNSNASTVSGRLSPIMASTELDEVQDDDAPLSPMLYSSSASLSPSVSKPCTVELPRLTDMAGTMNLNDGLTENLMDDLLDNITLPPSQPSPTGGLMQRSSSFPYTTKGSGLGSPTSSFNSTVFGPSSLNSLRQSPMQTIQENKPATFSSMSHYGNQTLQDLLTSDSLSHSDVMMTQSDPLMSQASTAVSAQNSRRNVMLRNDPMMSFAAQPNQGSLVNQNLLHHQHQTQGALGGSRALSNSVSNMGLSESSSLGSAKHQQQSPVSQSMQTLSDSLSGSSLYSTSANLPVMGHEKFPSDLDLDMFNGSLECDMESIIRSELMDADGLDFNFDSLISTQNVVGLNVGNFTGAKQASSQSWVPG
notes: Expressed in LNCaP cells; not shown: HA tag
binding result [1]: binds

B2: Flag-FOXO1-A3 (T24A/S256A/S319A) (other, human, UniProt Q12778 1-655, looked up)
chain: MAEAPQVVEIDPDFEPLPRPRSCAWPLPRPEFSQSNSATSSPAPSGSAAANPDAAAGLPSASAAAVSADFMSNLSLLEESEDFPQAPGSVAAAVAAAAAAAATGGLCGDFQGPEAGCLHPAPPQPPPPGPLSQHPPVPPAAAGPLAGQPRKSSSSRRNAWGNLSYADLITKAIESSAEKRLTLSQIYEWMVKSVPYFKDKGDSNSSAGWKNSIRHNLSLHSKFIRVQNEGTGKSSWWMLNPEGGKSGKSPRRRAAAMDNNSKFAKSRSRAAKKKASLQSGQEGAGDSPGSQFSKWPASPGSHSNDDFDNWSTFRPRTSANASTISGRLSPIMTEQDDLGEGDVHSMVYPPSAAKMASTLPSLSEISNPENMENLLDNLNLLSSPTSLTVSTQSSPGTMMQQTPCYSFAPPNTSLNSPSPNYQKYTYGQSSMSPLPQMPIQTLQDNKSSYGGMSQYNCAPGLLKELLTSDSPPHNDIMTPVDPGVAQPNSRVLGQNVMMGPNSVMSTYGSQASHNKMMNPSSHTHPGHAQQTSAVNGRPLPHTVSTMPHTSGMNRLTQVKTPVQVPLPHPMQMSALGGYSSVSSCNGYGRMGLLHQEKLPSDLDGMFIERLDCDMESIIRNDLMDGDTLDFNFDNVLPNQSFPHSVKTTTHSWVSG
notes: Expressed in LNCaP cells; also called triple mutant; not shown: Flag tag
binding result [2]: no binding

B5: Flag-FOXO1-T24A (other, human, UniProt Q12778 1-655, looked up)
chain: B2 chain with A256S, A319S
notes: Expressed in LNCaP cells; not shown: Flag tag
binding result [2]: binds

B6: Flag-FOXO1-S256A (other, human, UniProt Q12778 1-655, looked up)
chain: B2 chain with A24T, A319S
notes: as for B5
binding result [2]: binds

B8: GST-FOXO1-5 (amino acids 488-655) (other, human, UniProt Q12778 488-655, looked up, not shown: a dimerising Fc or GST)
chain: NSRVLGQNVMMGPNSVMSTYGSQASHNKMMNPSSHTHPGHAQQTSAVNGRPLPHTVSTMPHTSGMNRLTQVKTPVQVPLPHPMQMSALGGYSSVSSCNGYGRMGLLHQEKLPSDLDGMFIERLDCDMESIIRNDLMDGDTLDFNFDNVLPNQSFPHSVKTTTHSWVSG
notes: range 488-655
binding result [4]: no binding

B9: GST-FOXO1-2 (amino acids 149-267) (other, human, UniProt Q12778 149-267, looked up, not shown: a dimerising Fc or GST)
chain: PRKSSSSRRNAWGNLSYADLITKAIESSAEKRLTLSQIYEWMVKSVPYFKDKGDSNSSAGWKNSIRHNLSLHSKFIRVQNEGTGKSSWWMLNPEGGKSGKSPRRRAASMDNNSKFAKSR
notes: range 149-267
binding result [4]: no binding

B12: SFB-FOXO1-IQBP S319 (peptide, not shown: small tags and cut ends)
peptide: NDDFDNWSTFRPRTSSNASTISGRLSPIMT
modifications: also: SFB tag, position not given here
notes: Expressed in LNCaP cells; also called wild-type counterpart
binding result [5]: binds

B13: SFB-FOXO1-IQBP S319E (peptide, not shown: small tags and cut ends)
peptide: B12 peptide with S16E
modifications: also: SFB tag, position not given here
notes: Expressed in LNCaP cells; also called Flag-tagged FOXO1 IQBP(SE)
binding result [5]: binds

Binder: NDDFDNWSTFRPRTSDNASTISGRLSPIMT (peptide, not shown: small tags and cut ends, also: SFB tag, position not given here, Expressed in LNCaP cells) [SFB-FOXO1-IQBP S319D]
binding result [5]: binds

B14: HA-FOXO4 (other, UniProt P98177 1-505, looked up)
chain: MDPGNENSATEAAAIIDLDPDFEPQSRPRSCTWPLPRPEIANQPSEPPEVEPDLGEKVHTEGRSEPILLPSRLPEPAGGPQPGILGAVTGPRKGGSRRNAWGNQSYAELISQAIESAPEKRLTLAQIYEWMVRTVPYFKDKGDSNSSAGWKNSIRHNLSLHSKFIKVHNEATGKSSWWMLNPEGGKSGKAPRRRAASMDSSSKLLRGRSKAPKKKPSVLPAPPEGATPTSPVGHFAKWSGSPCSRNREEADMWTTFRPRSSSNASSVSTRLSPLRPESEVLAEEIPASVSSYAGGVPPTLNEGLELLDGLNLTSSHSLLSRSGLSGFSLQHPGVTGPLHTYSSSLFSPAEGPLSAGEGCFSSSQALEALLTSDTPPPPADVLMTQVDPILSQAPTLLLLGGLPSSSKLATGVGLCPKPLEAPGPSSLVPTLSMIAPPPVMASAPIPKALGTPVLTPPTEAASQDRMPQDLDLDMYMENLECDMDNIISDLMDEGEGLDFNFEPDP
notes: as for B1
binding result [6]: binds

Further lines, results first:

binding result [3]: binds
B3: SFB-tagged FOXO1 (other, human, UniProt Q12778 1-655, looked up)
chain: B2 chain with A24T, A256S, A319S
notes: also called SFB-FOXO1; not shown: about 12 kDa, 119 amino acid

binding result [2]: no binding
B4: Flag-FOXO1-S319A (other, human, UniProt Q12778 1-655, looked up)
chain: B2 chain with A24T, A256S
notes: as for B5

binding result [4]: no binding
B7: GST-FOXO1-1 (amino acids 1-167) (other, human, UniProt Q12778 1-167, looked up, not shown: a dimerising Fc or GST)
chain: MAEAPQVVEIDPDFEPLPRPRSCTWPLPRPEFSQSNSATSSPAPSGSAAANPDAAAGLPSASAAAVSADFMSNLSLLEESEDFPQAPGSVAAAVAAAAAAAATGGLCGDFQGPEAGCLHPAPPQPPPPGPLSQHPPVPPAAAGPLAGQPRKSSSSRRNAWGNLSYAD
notes: range 1-167

binding result [2]: binds
B10: Flag-FOXO1-537 (other, human, UniProt Q12778 1-537, looked up)
chain: MAEAPQVVEIDPDFEPLPRPRSCTWPLPRPEFSQSNSATSSPAPSGSAAANPDAAAGLPSASAAAVSADFMSNLSLLEESEDFPQAPGSVAAAVAAAAAAAATGGLCGDFQGPEAGCLHPAPPQPPPPGPLSQHPPVPPAAAGPLAGQPRKSSSSRRNAWGNLSYADLITKAIESSAEKRLTLSQIYEWMVKSVPYFKDKGDSNSSAGWKNSIRRNLSLHSKFIRVQNEGTGKSSWWMLNPEGGKSGKSPRRRAASMDNNSKFAKSRSRAAKKKASLQSGQEGAGDSPGSQFSKWPASPGSHSNDDFDNWSTFRPRTSSNASTISGRLSPIMTEQDDLGEGDVHSMVYPPSAAKMASTLPSLSEISNPENMENLLDNLNLLSSPTSLTVSTQSSPGTMMQQTPCYSFAPPNTSLNSPSPNYQKYTYGQSSMSPLPQMPIQTLQDNKSSYGGMSQYNCAPGLLKELLTSDSPPHNDIMTPVDPGVAQPNSRVLGQNVMMGPNSVMSTYGSQASHNKMMNPSSHTHPGHAQQTSAVNGR
notes: Transcription-deficient mutant that can be phosphorylated by AKT; not shown: Flag tag

binding result [4]: no binding
B11: GST-FOXO1-4 (amino acids 354-503) (other, human, UniProt Q12778 354-503, looked up, not shown: a dimerising Fc or GST)
chain: KMASTLPSLSEISNPENMENLLDNLNLLSSPTSLTVSTQSSPGTMMQQTPCYSFAPPNTSLNSPSPNYQKYTYGQSSMSPLPQMPIQTLQDNKSSYGGMSQYNCAPGLLKELLTSDSPPHNDIMTPVDPGVAQPNSRVLGQNVMMGPNSV
notes: range 354-503
